Reference: paper PMC8399836

Target: individual G6PD protein (g6pd region of the fused G6PD::6PGL enzyme from Giardia lamblia) (Giardia lamblia)
Experiment: SEC; size exclusion chromatography (gel filtration) of the purified individual G6PD protein; one peak with G6PD activity; column and buffer not told in the text shown

stoichiometry N: 2
Substance: individual G6PD protein (g6pd region of the fused G6PD::6PGL enzyme from Giardia lamblia) (domain or fragment)
